Data as given in the supplement of paper PMC7125110.
± gives the standard error. This sample holds only a part of the variants without activity.

B1: glmS ribozyme (parent)
chain: AUAAAAGCGCCAGAACUACAGAAAUGUAGUUGACGAGGAGGAGGUUUAUCGAAUUUUCGGCGGAUGCCUCCAAA

Key:
Conditions in all cases: with glucosamine-6-phosphate
glucosamine-6-phosphate [1] = variants of: B1; assay: self-cleavage kobs at 640 uM GlcN6P; higher = faster cleavage; RNA array
In short: (§1)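 Barcoded glmS ribozyme variants on sequenced MiSeq chips were transcribed in situ by E. coli RNA polymerase and tracked through a hybridised Cy3 probe at 37 °C. Glucosamine-6-phosphate (40 μM to 10 mM) in HEPES/KCl/Mg(OAc)2 buffer was flowed in, and tiles were imaged over ~14 h. Signals were normalised to baseline and to non-cleaving reference variants; per-tile medians were fit to one- or two-exponential decays to give kobs. kcat and KM came from weighted Michaelis–Menten fits across concentrations.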

glucosamine-6-phosphate [2] = variants of: B1; assay: self-cleavage kobs at 2500 uM GlcN6P; higher = faster cleavage; RNA array
In short: as §1

glucosamine-6-phosphate [3] = variants of: B1; assay: self-cleavage kobs at 10000 uM GlcN6P; higher = faster cleavage; RNA array
In short: as §1

C8A G32A G66U
self-cleavage kobs at 640 uM GlcN6P (glucosamine-6-phosphate [1]): < 1e-05 s⁻¹

C8U C11U U55A G62A
self-cleavage kobs at 640 uM GlcN6P (glucosamine-6-phosphate [1]): < 1e-05 s⁻¹
self-cleavage kobs at 2500 uM GlcN6P (glucosamine-6-phosphate [2]): < 1e-05 s⁻¹

A15U C50G G66C C71G
self-cleavage kobs at 640 uM GlcN6P (glucosamine-6-phosphate [1]): 7.22e-05 ± 2.8e-05 s⁻¹
self-cleavage kobs at 2500 uM GlcN6P (glucosamine-6-phosphate [2]): 9.27e-05 ± 3e-05 s⁻¹

C10U A39U G41U
self-cleavage kobs at 640 uM GlcN6P (glucosamine-6-phosphate [1]): < 1e-05 s⁻¹

G7U A36G G38U
self-cleavage kobs at 640 uM GlcN6P (glucosamine-6-phosphate [1]): < 1e-05 s⁻¹

A33C G35C U56C C67U
self-cleavage kobs at 640 uM GlcN6P (glucosamine-6-phosphate [1]): < 1e-05 s⁻¹

G7A U31C A52G
self-cleavage kobs at 640 uM GlcN6P (glucosamine-6-phosphate [1]): < 1e-05 s⁻¹

C8U G32U C68A
self-cleavage kobs at 640 uM GlcN6P (glucosamine-6-phosphate [1]): < 1e-05 s⁻¹

U31C A39C G51C
self-cleavage kobs at 640 uM GlcN6P (glucosamine-6-phosphate [1]): < 1e-05 s⁻¹

A12G C34U
self-cleavage kobs at 640 uM GlcN6P (glucosamine-6-phosphate [1]): < 1e-05 s⁻¹
self-cleavage kobs at 10000 uM GlcN6P (glucosamine-6-phosphate [3]): < 1e-05 s⁻¹

A6U A36C G38U U56C C67G C68G
self-cleavage kobs at 640 uM GlcN6P (glucosamine-6-phosphate [1]): 0.000412 ± 0.0001 s⁻¹
self-cleavage kobs at 2500 uM GlcN6P (glucosamine-6-phosphate [2]): 0.000145 ± 4.4e-05 s⁻¹

C11A G32A G66U
self-cleavage kobs at 640 uM GlcN6P (glucosamine-6-phosphate [1]): < 1e-05 s⁻¹

U47G C70U C71G
self-cleavage kobs at 640 uM GlcN6P (glucosamine-6-phosphate [1]): 0.000118 ± 2.3e-05 s⁻¹

C8A U31G C61A
self-cleavage kobs at 640 uM GlcN6P (glucosamine-6-phosphate [1]): < 1e-05 s⁻¹
self-cleavage kobs at 10000 uM GlcN6P (glucosamine-6-phosphate [3]): < 1e-05 s⁻¹

G9A A48U C50A
self-cleavage kobs at 640 uM GlcN6P (glucosamine-6-phosphate [1]): < 1e-05 s⁻¹

G29C G37C C68G
self-cleavage kobs at 640 uM GlcN6P (glucosamine-6-phosphate [1]): 7.66e-05 ± 3.4e-05 s⁻¹

G9U C10G G13C A48C C50U
self-cleavage kobs at 640 uM GlcN6P (glucosamine-6-phosphate [1]): < 1e-05 s⁻¹
self-cleavage kobs at 2500 uM GlcN6P (glucosamine-6-phosphate [2]): < 1e-05 s⁻¹

G35U G40U G63U C71G
self-cleavage kobs at 640 uM GlcN6P (glucosamine-6-phosphate [1]): < 1e-05 s⁻¹

C8G G41A A52U
self-cleavage kobs at 640 uM GlcN6P (glucosamine-6-phosphate [1]): < 1e-05 s⁻¹
self-cleavage kobs at 2500 uM GlcN6P (glucosamine-6-phosphate [2]): < 1e-05 s⁻¹

G29A G35C G40A
self-cleavage kobs at 640 uM GlcN6P (glucosamine-6-phosphate [1]): < 1e-05 s⁻¹

A6U G37C G38A C71A
self-cleavage kobs at 640 uM GlcN6P (glucosamine-6-phosphate [1]): < 1e-05 s⁻¹

C11U U30C G43A
self-cleavage kobs at 640 uM GlcN6P (glucosamine-6-phosphate [1]): < 1e-05 s⁻¹

C16G A48U C50G C70A
self-cleavage kobs at 640 uM GlcN6P (glucosamine-6-phosphate [1]): 5.34e-05 ± 2.6e-05 s⁻¹

A6U G38U A39C U55A
self-cleavage kobs at 640 uM GlcN6P (glucosamine-6-phosphate [1]): < 1e-05 s⁻¹
self-cleavage kobs at 2500 uM GlcN6P (glucosamine-6-phosphate [2]): < 1e-05 s⁻¹

G29C U30G C70U
self-cleavage kobs at 640 uM GlcN6P (glucosamine-6-phosphate [1]): 0.000861 ± 0.00017 s⁻¹

G29C A36C C61A
self-cleavage kobs at 640 uM GlcN6P (glucosamine-6-phosphate [1]): < 1e-05 s⁻¹
self-cleavage kobs at 2500 uM GlcN6P (glucosamine-6-phosphate [2]): < 1e-05 s⁻¹

G38U C67U C70U
self-cleavage kobs at 640 uM GlcN6P (glucosamine-6-phosphate [1]): 0.000296 ± 0.00014 s⁻¹

A14G C16U U45C
self-cleavage kobs at 640 uM GlcN6P (glucosamine-6-phosphate [1]): 0.000986 ± 0.00024 s⁻¹
self-cleavage kobs at 2500 uM GlcN6P (glucosamine-6-phosphate [2]): 0.00371 ± 0.00065 s⁻¹

G29U G32U G44C U65C
self-cleavage kobs at 640 uM GlcN6P (glucosamine-6-phosphate [1]): < 1e-05 s⁻¹

C8U A64G C67G
self-cleavage kobs at 640 uM GlcN6P (glucosamine-6-phosphate [1]): < 1e-05 s⁻¹

C16U G59C G62U
self-cleavage kobs at 640 uM GlcN6P (glucosamine-6-phosphate [1]): < 1e-05 s⁻¹

C10U U47G G51U U57C C58G A64U
self-cleavage kobs at 640 uM GlcN6P (glucosamine-6-phosphate [1]): < 1e-05 s⁻¹

A15U G35A C68U
self-cleavage kobs at 640 uM GlcN6P (glucosamine-6-phosphate [1]): < 1e-05 s⁻¹
self-cleavage kobs at 2500 uM GlcN6P (glucosamine-6-phosphate [2]): < 1e-05 s⁻¹

G7C C8G C10U C70G
self-cleavage kobs at 640 uM GlcN6P (glucosamine-6-phosphate [1]): 0.000355 ± 0.0001 s⁻¹

A39C U55G C67U
self-cleavage kobs at 640 uM GlcN6P (glucosamine-6-phosphate [1]): 7.28e-05 ± 1.4e-05 s⁻¹

A12C G13U A36U
self-cleavage kobs at 640 uM GlcN6P (glucosamine-6-phosphate [1]): < 1e-05 s⁻¹
self-cleavage kobs at 2500 uM GlcN6P (glucosamine-6-phosphate [2]): < 1e-05 s⁻¹

U30A A48C C58U G59C
self-cleavage kobs at 640 uM GlcN6P (glucosamine-6-phosphate [1]): < 1e-05 s⁻¹

C50G A52U
self-cleavage kobs at 640 uM GlcN6P (glucosamine-6-phosphate [1]): < 1e-05 s⁻¹
self-cleavage kobs at 10000 uM GlcN6P (glucosamine-6-phosphate [3]): < 1e-05 s⁻¹

A15U A42C C67U C70G
self-cleavage kobs at 640 uM GlcN6P (glucosamine-6-phosphate [1]): < 1e-05 s⁻¹
self-cleavage kobs at 2500 uM GlcN6P (glucosamine-6-phosphate [2]): < 1e-05 s⁻¹
